Assay results as given in paper PMC9439264.

Biological target: HA trimer of A/Beijing/262/1995 (H1N1), thrombin- and trypsin-treated, for the immune complex (Influenza A virus A/Beijing/262/1995 (H1N1))
Experiment: cryo-EM structure; 12H5 Fab with thrombin- and trypsin-treated BJ/1995 HA trimer

HA trimer of A/Beijing/262/1995 (H1N1), thrombin- and trypsin-treated, for the immune complex
stoichiometry N: 3
